The record followed here is patent publication US20030040043A1 (published 2003).

The target in the assay is T1, GAL4bd-FtsA fusion (E. coli, UniProt P04386 1-147; P0ABH0 1-420).
T1 construct: also called pAS2-1-FtsA; SHp100
As to the kind of experiment: yeast two-hybrid, GAL4 system, plates lacking histidine and AT.

Where a chain is given by its changes, count along the chain named. Names and notes keep the numbering of the source.

B1: GAL4ad-FtsZ^D373G fusion (pGAD424) (other)
chain: MFEPMELTNDAVIKVIGVGGGGGNAVEHMVRERIEGVEFFAVNTDAQALRKTAVGQTIQIGSGITKGLGAGANPEVGRNAADEDRDALRAALEGADMVFIAAGMGGGTGTGAAPVVAEVAKDLGILTVAVVTKPFNFEGKKRMAFAEQGITELSKHVDSLITIPNDKLLKVLGRGISLLDAFGAANDVLKGAVQGIAELITRPGLMNVDFADVRTVMSEMGYAMMGSGVASGEDRAEEAAEMAISSPLLEDIDLSGARGVLVNITAGFDLRLDEFETVGNTIRAFASDNATVVIGTSLDPDMNDELRVTVVATGIGMDKRPEITLVTNKQVQQPVMDRYQQHGMAPLTQEQKPVAKVVNDNAPQTAKEPDYLGIPAFLRKQAD
notes: also called pGAD424-FtsZ^D373G; SHp201
In the case of B1, the binding result was “no binding”.

B2: GAL4ad-FtsZ^D373G,P375L fusion (pGAD424) (other)
chain: B1 chain with P375L
notes: also called pGAD424-FtsZ^D373G,P375L; SHp203
As for B2, the binding result is reported as “no binding”.
